For one data set, the system named is free PCSK9. As to the kind of experiment: Phase 1 study: circulating levels of free PCSK9. It is filed as in vivo, human. The conditions noted are these: for Free PCSK9 level at end of run-in period: prior to alirocumab treatment, from 152 (FENO) and 151 (EZE) at start of run-in. From the text: (§1) The primary objective of the study was to assess the pharmacodynamic profile of alirocumab administered either alone or on top of ezetimibe or fenofibrate, based on low density lipoprotein cholesterol (LDL-C).

The test system of data set [1] is healthy subjects. As to the kind of experiment: Phase 1 study in healthy subjects: pharmacodynamic profile (serum lipid parameters) of alirocumab alone or on top of ezetimibe or fenofibrate. It is filed as in vivo, human. The conditions noted are these: for Percent change in LDL-C during the run-in period (Day −29 to Day −1): ezetimibe 10 mg/day or fenofibrate 160 mg/day alone, before alirocumab, value on Day −1, mean (SEM); for Mean percent change in LDL-C from Day −1 baseline to Day 71: additional baseline Day −1 (start of alirocumab injection); for Mean percent change in LDL-C from Day −29 baseline to Day 71: main baseline Day −29 (start of placebo/EZE/FENO run-in), Day 71 = 14 days after 3rd alirocumab dose, 150 mg SC Q4W, N=24. As to the method:
as §1
The study evaluated 72 healthy subjects.
Alirocumab was administered subcutaneously in the abdomen.
Ezetimibe was formulated as a 10 mg over-encasulated tablet (and matching placebo ezetimibe capsule). Ezetimibe was administered orally.
Fenofibrate was formulated at a 160 mg coated tablet. Fenofibrate was administered orally during a meal.
The duration of treatment was as follows.
The pharmacodynamic criteria were as follows. The primary endpoint was percent change in calculated serum LDL-C from baseline (D-29). The secondary endpoints were absolute change from baseline in calculated LDL-C, total cholesterol (TC), high density lipoprotein cholesterol (HDL-C), non-HDL-C, triglycerides (TG), apolipoprotein B (ApoB), apolipoprotein A1 (ApoA1), and lipoprotein a (Lp[a]) analyzed in percent and absolute change from baseline.
The blood sampling for lipid parameters (ie, LDL-C, TC, HDL-C, non-HDL-C, TG, ApoB, ApoA1, Lp[a]) were performed in the morning, in the fasted condition (at least 10-hours fasted and refrained from smoking), before any drug intake.
Blood samples were collected at screening; Day −1 of the run-in phase; and Days 8, 15, 22, 29±1, 57±1, 64±1, 71±1, 78±1, 85±1, 99±2, and 120±3 of the treatment phase.

The subject of data set [2] is patients with genotype-confirmed hoFH. The conditions noted are these: ezetimibe 10 mg/day added to maximal dose of statins; cited from earlier work.
For data set [3], the system named is healthy subjects. In words: Phase 1 study: safety (adverse events, laboratory, vital signs, ECG). Particulars: for Patients with any TEAEs, %: N = 24 per group.
The conditions of data set [4]: in vivo.
For data set [5] the following is noted: in vivo. The source holds these as a separate data set.
Procedure: Samples for the determination of anti-drug antibody (ADA) levels in serum were collected at Day −28 of the run-in phase; Days 29, 57, 85, and 120 of the treatment phase; and the EOS visit.
In neat serum samples, the validated lower limit of detection was approximately 1.5 ng/mL.
Where [6] appears, read: listed as Alirocumab 150 mg Q4W + placebo.
Where [7] appears, read: additional baseline Day −1, 14 days after 3rd alirocumab dose.
Where [8] appears, read: main baseline Day −29, 14 days after 3rd alirocumab dose.
Setting [9] is: median, additional baseline Day −1, 14 days after 3rd alirocumab dose.
Where [10] appears, read: median, main baseline Day −29, 14 days after 3rd alirocumab dose.

“And” between values parts separate entries of the source, which are not always exact repeats. Equal entries are not always repeated. Where two headings read alike, the source gives them in different places.

With `O=C1[C@H](CC[C@H](O)c2ccc(F)cc2)[C@@H](c2ccc(O)cc2)N1c1ccc(F)cc1` [ezetimibe], in the data set on free PCSK9, the “Free PCSK9 level at end of run-in period” value worked out at 142 ng/mL. Besides, the “Percent change in LDL-C during the run-in period (Day −29 to Day −1)” value with healthy subjects [1] was −19.8 (2.1) %. Also, the “Total reduction of LDL-C levels” value in data set [2] is 27%.
On to alirocumab, for which, in the data set on healthy subjects [3] (N = 24), the “Abdominal pain (TEAE), %” value is recorded as “(8.3) %”; the “Gastroenteritis viral (TEAE), %” value is “(0) %”; the “Headache (TEAE), %” value is “(12.5) %”; the “Influenza (TEAE), %” value is “(8.3) %”. Besides, in the data set with healthy subjects [3] (N = 24), the “Influenza-like illness (TEAE), %” value is “(4.2) %” and the “Nasopharyngitis (TEAE), %” value is listed as “(12.5) %”. Moreover, the “Patients with any TEAEs, %” value in the data set on healthy subjects [3] (setting [6]) was “(50.0) %”. For the same molecule, the “Patients with any TEAEs, %” value in the data set on healthy subjects [3] (listed as alirocumab alone) came out at 50.0%. In addition, in the data set on healthy subjects [3] (alone or on top of ezetimibe or fenofibrate, 150 mg Q4W for 3 administrations, healthy subjects), the Tolerability entry is given as “well tolerated”. In data set [4] (human), the “AUClast, Geometric Mean” value was “(306) [38.4] mg · day/l”; the “AUClast, Mean ± SD” value was determined as 326 ± 125 mg·days/L; the “CL/F, Mean ± SD” value was determined as 0.312 ± 0.124 L/day; the “Cmax, Mean ± SD” value stood at 24300 ± 8610 ng/mL. Moreover, in data set [4] (human), the “MRT, Geometric Mean” value was “(18.2) [20.7] day”; the “MRT, Mean ± SD” value was 18.5 ± 3.84 days; the “t1/2z, Geometric Mean” value is “(8.37) [35.7] day”; the “t1/2z, Mean ± SD” value is 8.76 ± 3.12 days. Further, in data set [4] (human, sc, 150 mg), the “Cmax, Mean ± SD” value came to 20400 ± 13500 ng/mL. In data set [4], the “AUC, Geometric Mean” value was “(318) [58.9]^b mg · day/l”; the “AUC, Mean ± SD” value is 357 ± 210 mg·days/L; the “AUCExt (percentage of extrapolation of AUC), Geometric Mean” value was “(22) [44.7] %”; the “AUCExt (percentage of extrapolation of AUC), Mean ± SD” value is reported as 25 ± 11%. For the same molecule, in data set [4], the “tlast, Median” value is 69.00 days. Besides, in the data set with free PCSK9 (after the 1st and 3rd alirocumab injections), the “Effect on free PCSK9 after alirocumab injection” value is on record as “complete suppression”. For the same molecule, the “Percent change in LDL-C from Day −1 baseline to Day 85” value with healthy subjects [1] (28 days after the 3rd administration of alirocumab) is −47.03%. Further, the “Mean percent change in LDL-C from Day −1 baseline to Day 71” value with healthy subjects [1] (14 days after 3rd alirocumab dose, listed as Alirocumab 150 mg Q4W + placebo) is −47.4%. Moreover, the “Mean percent change in LDL-C from Day −1 baseline to Day 71” value in the data set on healthy subjects [1] (14 days after 3rd alirocumab dose, listed as alirocumab alone) was −47.39% and −47.4 (3.2) %. Also, in the data set with healthy subjects [1] (setting [7]), the “Mean percent change in Apolipoprotein B from Day −1 baseline to Day 71” value is −38.4%, the “Mean percent change in HDL-C from Day −1 baseline to Day 71” value is 3.6%, the “Mean percent change in Non-HDL-C from Day −1 baseline to Day 71” value was −43.0% and the “Mean percent change in Total cholesterol from Day −1 baseline to Day 71” value was −31.5%. In addition, in the data set on healthy subjects [1] (alirocumab 150 mg Q4W monotherapy, regardless of baseline), the “LDL-C reductions, sustained over the 28-day dosing interval” value is around 48%. The “Mean percent change in LDL-C from Day −29 baseline to Day 71” value in the data set with healthy subjects [1] (setting [6]) is reported as −48.2%. Moreover, in the data set with healthy subjects [1] (listed as alirocumab alone), the “Mean percent change in LDL-C from Day −29 baseline to Day 71” value was −47.59% and −48.2 (2.3) %. Besides, in the data set on healthy subjects [1] (setting [8]), the “Mean percent change in Apolipoprotein B from Day −29 baseline to Day 71” value is −39.1%, the “Mean percent change in HDL-C from Day −29 baseline to Day 71” value turned out to be 3.3%, the “Mean percent change in Non-HDL-C from Day −29 baseline to Day 71” value is on record as −43.0% and the “Mean percent change in Total cholesterol from Day −29 baseline to Day 71” value is reported as −31.6%. Besides, in the data set with healthy subjects [1] (setting [9]), the “Median percent change in Lipoprotein (a) from Day −1 baseline to Day 71” value is given as −11.7% and the “Median percent change in Triglycerides from Day −1 baseline to Day 71” value is on record as −3.9%. In the data set on healthy subjects [1] (setting [10]), the “Median percent change in Lipoprotein (a) from Day −29 baseline to Day 71” value is reported as −20.3% and the “Median percent change in Triglycerides from Day −29 baseline to Day 71” value came out at 5.7%. Further, in data set [5], the “Subjects tested ADA positive, %” value is reported as 16.7% and the “Subjects tested ADA positive, number” value was “Four out of 24”.
For `CC(C)OC(=O)C(C)(C)Oc1ccc(C(=O)c2ccc(Cl)cc2)cc1` [fenofibrate, reference compound], the “Free PCSK9 level at end of run-in period” value in the data set with free PCSK9 is given as 217 ng/mL. In addition, the “Percent change in LDL-C during the run-in period (Day −29 to Day −1)” value in the data set on healthy subjects [1] was −25.9 (3.2) %.

These data come from patent US12606638B2, “Dosing regimens for use with PCSK9 inhibitors” (Sanofi Biotechnology, priority 2013, dated 2026).
